Measured values published in US20030078373A1.

Key:
[1] = target: IGPS (49-252) (indoleglycerol phosphate synthase lacking residues 1-48); assay: refolding chromatography, urea-denatured IGPS (49-252) on the fragment column, peak 2 (refolded protein)
cyclophilin A [2] = target: cyclophilin A (UniProt P62937); assay: refolding chromatography, initially denatured cyclophilin, active peak
cyclophilin A [3] = target: cyclophilin A (UniProt P62937); assay: refolding chromatography, initially denatured cyclophilin, inactive peak
[4] = target: IGPS (49-252) (indoleglycerol phosphate synthase lacking residues 1-48); assay: refolding chromatography, urea-denatured IGPS (49-252) on the fragment column, peak 1
barnase = barnase (UniProt P00648); assay: cell-based or functional assay
Sequence of barnase (P00648 48-157 limits assumed): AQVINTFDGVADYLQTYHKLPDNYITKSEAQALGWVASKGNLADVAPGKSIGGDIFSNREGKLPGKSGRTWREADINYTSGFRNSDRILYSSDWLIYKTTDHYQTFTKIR

Substance	Kav [1]	Kav (cyclophilin A [2])	Kav (cyclophilin A [3])	Kav [4]	C, factor by which EX2 mechanism exchange is catalysed by GroEL fragment (globally exchanging amide protons of barnase) (barnase)	C, factor by which EX2 mechanism exchange is catalysed by GroEL fragment (locally exchanging amide protons of barnase) (barnase)	C, factor by which EX2 mechanism exchange is catalysed by GroEL fragment (mixed amide protons of barnase) (barnase)
ht-GroEL 191-345 immobilised on Ni-NTA agarose	1.7	1.43	0.38	1			
GroEL 191-345					10 fold	5 fold	1 fold
